# Data taken from the DeepSol protein solubility set.
# Assay: soluble on expression in E. coli; label from the status in PepcDB or PDB records
row,Sequence,soluble on expression in E. coli
1,MKRLQAFKFQLRPGGQQECEMRRFAGACRFVFNRALARQNENHEAGNKYIPYGKMASWLVEWKNATETQWLKDSPSQPLQQSLKDLERAYKNFFRKRAAFPRFKKRGQNDAFRYPQGVKLDQENSRIFLPKLGWMRYRNSRQVTGVVKNVTVSQSCGKWYISIQTESEVSTPVHPSASMVGLDAGVAKLATLSDGTVFEPVNSFQKNQKKLARLQRQLSRKVKFSNNWQKQKRKIQRLHSCIANIRRDYLHKVTTAVSKNHAMIVIEDLKVSNMSKSAAGTVSQPGRNVRAKSGLNRSILDQGWYEMRRQLAYKQLWRGGQVLAVPPAYTSQRCAYCGHTAKENRLSQSKFRCQVCGYTANADVNGARNILAAGHAVLACGEMVQSGRPLKQEPTEMIQATALEHHHHHH,not soluble
2,MKRMLVGCLAAALLFSSGWATAEAKGKQQSKPKWADKNKDGIPDDWELKYKLGLGKNVANQDKDRDGLTNRVEYNLRLNPTKTDTDKDKILDGDEDTDRDGLTNSAEVALGTKPEDADSDNDHVKDGAEKKGKAQLANVVQKLELQMKTAANQTIKIDYHWSDRHSHLHIKDQTGEVTTNDVQSLINDLQASPSLSNDEVIAKIQTLFSLDTPFRLELEWKYGSGRARKLSVKQDEDKGENAGQPGDDQDDDDQGHDQDGHDQNHDQDDDDYDGGNVGGDDGNSSE,not soluble
3,MKRSKRFAVLAQRPVNQDGLIGEWPEEGLIAMDSPFDPVSSVKVDNGLIVELDGKRRDQFDMIDRFIADYAINVERTEQAMRLEAVEIARMLVDIHVSREEIIAITTAITPAKAVEVMAQMNVVEMMMALQKMRARRTPSNQCHVTNLKDNPVQIAADAAEAGIRGFSEQETTVGIARYAPFNALALLVGSQCGRPGVLTQCSVEEATELELGMRGLTSYAETVSVYGTEAVFTDGDDTPWSKAFLASAYASRGLKMRYTSGTGSEALMGYSESKSMLYLESRCIFITKGAGVQGLQNGAVSCIGMTGAVPSGIRAVLAENLIASMLDLEVASANDQTFSHSDIRRTARTLMQMLPGTDFIFSGYSAVPNYDNMFAGSNFDAEDFDDYNILQRDLMVDGGLRPVTEAETIAIRQKAARAIQAVFRELGLPPIADEEVEAATYAHGSNEMPPRNVVEDLSAVEEMMKRNITGLDIVGALSRSGFEDIASNILNMLRQRVTGDYLQTSAILDRQFEVVSAVNDINDYQGPGTGYRISAERWAEIKNIPGVVQPDTIE,soluble
4,MKRVLVVDDEESITSSLSAILEEEGYHPDTAKTLREAEKKIKELFFPVIVLDVWMPDGDGVNFIDFIKENSPDSVVIVITGHGSVDTAVKAIKKGAYEFLEKPFSVERFLLTIKHAFEEYSKKAPPQEEIEFVGEHPKILEIKRLIPKIAKSKAPVLITGESGTGKEIVARLIHRYSGRKGAFVDLNCASIPQELAESELFGHEKGAFTGALTRKKGKLELADQGTLFLDEVGELDQRVQAKLLRVLETGSFTRLGGNQKIEVDIRVISATNKNLEEEIKKGNFREDLYYRLSVFQIYLPPLRERGKDVILLAEYFLKKFAKEYKKNCFELSEETKEYLMKQEWKGNVRELKNLIERAVILCEGEVIKPEDLGLKEKSWRDLSYLLKIKELKEAKKEFEKIFIEEKLREYDYDLKRTAEEIGIDLSNLYRKIKSLNIRVKSS,soluble
5,MKSILEQLSSMTVVVADTGDLDSIKKFQPRDATTNPSLILAAAKNPDYVKLIDKAIESSENTLPNGFSEIELIKETVDQVSVFFGKEILKIISGRVSTEVDARLSFDTEATVKKARKLINLYKNFGIEKERILIKIAATWEGIKAAEILEKEGIKCNLTLLFNFCQAVTCANANITLISPFVGRILDWHKAKTGKTSFIGAEDPGVISVTQIYKYFKEKGFKTEVMGASFRNLDEIKELAGCDLLTIAPKFLEELKREKGVLIRKLDASTKINNSIDYKFEEKDFRLSMLEDQMASEKLSEGITGFSKAIEELEELLIERLSEMKNHKLISAN,soluble
6,MKSKFFAQNRERLVNTLPDESITILFAGQAPHMSADAHYKFVPNRNFYYVTGIDEPNVIFMLKKFGNSVEETLFIEKSDPVMEKWVGKTVSNEEAEKISGIKKVIYLDSFEKTMSNIFFTENVKHLYLDLECREWKGTETKTLAFAKHVREQYPHVTIGNVYPNICELRVFKTDEEIEIIKEAIAVTKDGIYNVLKHAKADMMEYELEAQFDFTLKSSGIKHHAFNTILASGKNATVLHYEDNDAQIQNGDLVLLDLGAQKDYYNADISYTFPANGTFSSRQKQIYNIVLNALKETTEIIKPGLKFAALNEHAKKVLAEGCKAVGLIQEDEELSKYYYHGVSHFLGLDTHDVGTYKDRVLEEGMVITIEPGLYIEEESIGIRIEDDILVTKDGHENLSKDIIREVEEIEEFMRENNVNVKQDEVVTK,soluble
7,MKSLGADLDKALGRLSGGLYIITAKKGDVSSAMLASWVNQASFKPLGFSIAVAKDRAIESLMQVGDRFVLNVLEEGNYQPLMRHFLKRFAPGADRFEGVKTQPAENGAPILGDALAYMECEVVSRMDCGDHWAVYSTVYAGRVSKSEALTAVHHRKVGNHYLEHHHHHH,not soluble
8,MKSSSPISSLTTIISTGTNLGSGTDDDIYFGIHLNNGQKKEWLLDKETYNDFENGATDEYYLYINDMDFLPTMVDKVWVRKNSTGSFAGNWFFKALRIDANGNDVLSVSPNEWITDSNSQAEFNSDWSSVTNLTDPEFLEHHHHHH,soluble
9,MKTAIVTDSASYLSAADVEKYHIHVVPITVIFGHQTYLENVEITSKEFYERMRTAPELPTTTQITLGQMQTTYDQLAKAGYDAVISIHLSSGITSFITNLESYLPNVTNIKVYPFDSLITAGGEAYMVLLAAKLVTEGYSPEQVIAQLKKIRETTGVYFVVDNLSHLVRTGRLSNASGLVGNLLRIKPVLTFQDGKIVAIQKERTMRRAYAAIKAKLAAEIAAVDYPLRVTIENGNNPKLQAEWTADLKASFPDLTIDEGEIGPVVGVHVGEGVMGLIWARDWEKWTI,not soluble
10,MKTIRYALKKEKEMMKKFIAPLLALLVSGCQIDPYTHAPTLTSTDWYDVGMEDAISGSAIKDDDAFSDSQADRGLYLKGYAEGQKKTCQTDFTYARGLSGKSFPASCNNVENASQLHEVWQKGADENASAIRLN,not soluble
11,MKTISNEQLTIQVSPHGAELCSIFANGKEYLWQADPAFWKRHSPVLFPIVGSVWENQYRNEGIAYTLSQHGFARDMEFTLVSEKEDEVRYHLVSNEETLRKFPFPFCLEIGYRIQGKQIEVIWEVKNTGEKEMYFQIGAHPAFYWPDFNADTQNRGFFGFDKEEGLKYILISEKGCADPSTEYSLELTDGLLPLDTHTFDKDALIIENEQIHKVTLYTKEKKAYLSLHFHAPVVGLWSPPAKNAPFVCIEPWYGRCDRAHYTGEYKDKDWMQHLQPEETFRGGYTIEIDELEHHHHHH,not soluble
12,MKTKEDMQELYFPTPKLIEWENGVRQYSTVRGDTEVLMSYVPPHTNVEPHQHKEVQIGMVVSGELMMTVGDVTRKMTALESAYIAPPHVPHGARNDTDQEVIAIDIKRLKADETYTSPEDYFLDIFKTRDLLPGMEVTFFVEDWVEIMLAKIPGNGGEMPFHKHRNEQIGICIGGGYDMTVEGCTVEMKFGTAYFCEPREDHGAINRSEKESKSINIFFPPRYNRAKAKKMKADELEHHHHHH,soluble
13,MKTKLMTLQDATGFFRDGMTIMVGGFMGIGTPSRLVEALLESGVRDLTLIANDTAFVDTGIGPLIVNGRVRKVIASHIGTNPETGRRMISGEMDVVLVPQGTLIEQIRCGGAGLGGFLTPTGVGTVVEEGKQTLTLDGKTWLLERPLRADLALIRAHRCDTLGNLTYQLSARNFNPLIALAADITLVEPDELVETGELQPDHIVTPGAVIDHIIVSQESK,soluble
14,MKTLEAIKKELGEYEGKNIKIMEVCGTHTSSIFKNGIRSLISPRIQLISGPGCPVCVTASSYIDRLVEYSLKDNHCVLTFGDMMKVKGHKLSLTEAKATGGNVKILYSPLSAVKIAIKSPETQFIFAAVGFETTAPIYALMIEEIIKNNIKNLKLMTSIKTIIPAISYICENEKNIDAFLCPGHVSVIIGSSVYTDMALKYRKPFVIGGFEGGHIIAAIYEIIRQISNNEYSMKNMYQSAVSPEGNQKAKSLIDKYFEAADDYWRGIGIIKNSGLRLRTEYRDFDAGSTIFEDADAAPSGCKCADVILGRITPAQCPLFGKACTPLNAVGACMVSSEGACGIWYRNCEV,soluble
15,MKTNSEELTVFVQVVESGSFSRAAEQLEMANSAVSRIVKRLEEKLGVNLLNRTTRQLNLTEEGAQYFRRAQRILQEMAAAETEMLAVHEVPQGVLRVDSAMPMVLHLLAPLAAKFNERYPHIRLSLVSSEGYINLIERKVDIALRAGELDDSGLRARHLFDSHFRVVASPEYLAKHGTPQSAEDLANHQCLGFTEPGSLNTWAVLDAQGNPYKISPHFTASSGEILRSLCLSSCGIACLSDFLVDNDITEGKLIPLFAEQTSNKTHPFNAVYYSDKAVNLRLRVFLDFLVKELGKNMNRTNTK,not soluble
16,MKTNVIIDGDACPVVNSVIELTKGTGIFVTILRSFSHFSQQIQPEHVKIVYVDDGPDAVDYKIVELASNNDIVITQDYGLASLLIDKVHTVMHHKGNIYHSNNIQSLLDQRYLNAQIRRRGGRHKGPPPFTTEDRLKFEHAFRKIINQILEHHHHHH,soluble
17,MKTPDQKSCETAESSNTKYSPNLVIDGAAVSNEDVAGKVADLEYAHSFPDLVLNVEKHDDEYIKSFLLQRNWYHGMMFGKAAEKLLKWESSYIVRRSMGPTHKFLCITARVEDKYFHFQFNWNSEGWSCPILYEKFPRIPVKRYEHIYQLLDAWSLVVNQLVPISRCSMILQHSSIALENQLGRGAFGEVIKAKYVPMGATVPTEVAVKRLIGDAKRPQLVDFCNEANIMTLLEHKNIVALYGFASLQQPIMLVIEFVPGGDLRKYLQRTPNVPSKQIIKFAMEIASGMKHLSSKNVIHRDLAARNCLITKELNVKISDFGLSVNESETKMKSLKKAPIRWLSPETFSKGLFNEKTDVWSYGVLLTELMTRCAHDPLWPKNLKQVQKWIKESEHPHKIEDGDPSELKEIVDACCAKIPSVRINFREVKNRLAMLQQKKKTLELDAQKPMSPNPAIEKKKSEDRRNNMDRRNKTNRKSHTSTDRTNSNNTLTRKKSRDAGKNDRSNERKNKAKGGNLSVDGTNKSSRRKEQKGAVGISQEMVTK,not soluble
18,MKTPTFGKREETLTYQTRYAAYIIVSKPENNTMVLVQAPNGAYFLPGGEIEGTETKEEAIHREVLEELGISVEIGCYLGEADEYFYSNHRQTAYYNPGYFYVANTWRQLSEPLERTNTLHWVAPEEAVRLLKRGSHRWAVEKWLAAASLEHHHHHH,soluble
19,MKTQVAIIGAGPSGLLLGQLLHKAGIDNVILERQTPDYVLGRIRAGVLEQGMVDLLREAGVDRRMARDGLVHEGVEIAFAGQRRRIDLKRLSGGKTVTVYGQTEVTRDLMEAREASGATTVYQAAEVRLHDLQGERPYVTFERDGERLRLDCDYIAGCDGFHGISSQSIPAERLKVFERVYPFGWLGLLADTPPVSHELIYANHPRGFALCSQRSATRSRYYVQVPLTEKVEDWSDERFWTELKARLPAEVAEKLVTGPSLEKSIAPLRSFVVEPMQHGRLFLAGDAAHIVPPTGAKGLNLAASDVSTLYRLLLKAYREGRGELLERYSAICLRRIWKAERFSWWMTSVLHRFPDTDAFSQRIQQTELEYYLGSEAGLATIAENYVGLPYEEIE,soluble
20,MKTQVVINAKIYTGQEVVENGFIRYAETIKEIGLMAQYVSQENETVLDAAGKIVIPGMIDVHIHGGYDIDAMDANSDGLVTLGKEMLKEGVTTYFPTTMTQAPEAIEAALHAAKEAKEKGAHFEYIHLEGPYVSKKRAGAQPLEHIVPANIEQFKQWQEASGNLIKLVTYAPEEEGALEFEQYLAETGVVGTMGHTDAIDAQLKNRNITHATHLYNQMRGLHHREPGVVGHVLLNPDVMVEVITDGIHIHPDMVKLAYKLKGPKKVSVITDAMRAKGLEDGLYELGGQPVHVKDGSARLEDGTLAGSILKMDQAFRNVIEFTGCSIEDAVLMTSVNQAEEFGLNNKGALAVGKDADFVVMNEDLHVYDTVRLGIHMKEGK,not soluble
